The record followed here is PMC7791966 (Experimental and Therapeutic Medicine, 2020).

For the experiment, the target named is Recombinant human HER2 (Homo sapiens, UniProt P04626). As to the kind of experiment: SPR. Background: Surface plasmon resonance follows binding to a sensor surface in real time, without labels.

B1: e23sFv, mouse anti-HER2 single-chain variable fragment (scFv, V domains shown)
VH: VQLQESGPEVVKPGGSMKISCKTSGYSFTGHTMNWVKQSHGKNLEWIGLINPYNGDTNYNQKFKGKATFTVDKSSSTAYMELLSLTSEDSAVYYCARRVTDWYFDVWGAGTTVTVS
VL: DLQLTQSPAILSASPGEKVTMTCRATPSVSYMHWYQQKPGSSPKPWIYTTSNLASGVPARFSGGGSGTSYSLTVSRVEAEDAATYYCQQWSRSPPTFGGGSKLEIK
In the case of B1, the dissociation constant (Kd) – broadly, the equilibrium constant for the complex coming apart – came to 2.5 nM.

B2: EMEY, e23sFv derivative with 11 point mutations in the framework regions (scFv, V domains shown)
VH: VQLQESGPELVKPGGSVKISCKASGYSFTGHTMNWVKQSHGKGLEWIGLINPYNGDTNYNQKFKGKATLTVDKSSSTAYMELSSLTSEDSAVYYCARRVTDWYFDVWGAGTTVTVS
VL: DLQLTQSPAILSASPGEKVTMTCRATPSVSYMHWYQQKPGTSPKLWIYTTSNLASGVPARFSGSGSGTSYSLTISRVEAEDAATYYCQQWSRSPPTFGGGTKLEIK
Regarding B2, the Kd was ~500 nM.
